From doi:10.1101/2020.09.22.307744 (bioRxiv, 2020)
Read-outs that look alike come from different tables or passages of the source.

Assays:
Test in all cases: MST
[1] = target: Luminal domain of human ATF6 (activating transcription factor 6), His-tagged (human) (UniProt P18850)
[2] = target: Luminal domain of human IRE1α (inositol-requiring enzyme 1α), His-tagged (human) (UniProt O75460)
[3] = target: Luminal domain of human PERK (PKR-like endoplasmic reticulum kinase), His-tagged (human) (UniProt Q9NZJ5)
[4] = target: Human recombinant GRP78 (BiP, binding immunoglobulin protein) (human, UniProt P11021 19-654)
Human recombinant GRP78 (BiP, binding immunoglobulin protein), sequence (P11021 19-654): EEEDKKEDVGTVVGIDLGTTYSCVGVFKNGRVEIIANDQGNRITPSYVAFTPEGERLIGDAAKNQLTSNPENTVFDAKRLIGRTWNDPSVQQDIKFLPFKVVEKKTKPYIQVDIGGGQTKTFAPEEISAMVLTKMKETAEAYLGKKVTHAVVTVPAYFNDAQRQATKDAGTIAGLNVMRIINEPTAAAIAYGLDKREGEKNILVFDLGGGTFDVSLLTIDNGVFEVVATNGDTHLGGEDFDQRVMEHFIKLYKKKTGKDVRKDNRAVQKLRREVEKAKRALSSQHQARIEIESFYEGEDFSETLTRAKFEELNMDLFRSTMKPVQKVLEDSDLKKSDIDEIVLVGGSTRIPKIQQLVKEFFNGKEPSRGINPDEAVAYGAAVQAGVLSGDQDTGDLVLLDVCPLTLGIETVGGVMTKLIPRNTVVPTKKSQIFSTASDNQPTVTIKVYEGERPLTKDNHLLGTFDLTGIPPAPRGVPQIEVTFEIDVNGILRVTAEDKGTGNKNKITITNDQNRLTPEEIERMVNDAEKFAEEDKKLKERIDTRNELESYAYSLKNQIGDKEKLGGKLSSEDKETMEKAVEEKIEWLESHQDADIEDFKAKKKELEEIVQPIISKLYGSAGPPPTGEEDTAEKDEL

[5] = target: the molecule itself
[6] = target: the molecule itself; remark: listed apart in the source
[7] = target: the molecule itself; remark: listed apart in the source

In the case of “C-terminal domain of human MANF (C-MANF), E.coli produced (domain or fragment)”, the Kd [1] is reported as 1.3 µM, the Kd [2] is reported as 0.241 µM and the Kd [3] is reported as 1.4 µM.

For “C-terminal domain of human MANF (C-MANF), chemically synthesized (domain or fragment)”, the Kd [1] was 0.0098 µM, the Kd [2] was 0.0095 µM and the Kd [3] was 0.0076 µM.

“MANF K128A C130S, recombinant human mutant protein (from UniProt P55145 25-182) (natural protein)” was tested, and the Kd [2] was 0.055 µM.

“Mesencephalic astrocyte-derived neurotrophic factor (MANF), recombinant human (from UniProt P55145 25-182) (natural protein)” was tested, and the Kd [1] was 0.347 µM, the Kd [2] was 0.0947 µM and the Kd [3] was 0.384 µM.

B1: Luminal domain of human ATF6 (activating transcription factor 6), His-tagged (domain or fragment, UniProt P18850 399-670, looked up)
chain: EQDSRRMNPSVSPANQRRHLLGFSAKEAQDTSDGIIQKNSYRYDHSVSNDKALMVLTEEPLLYIPPPPCQPLINTTESLRLNHELRGWVHRHEVERTKSRRMTNNQQKTRILQGALEQGSNSQLMAVQYTETTSSISRNSGSELQVYYASPRSYQDFFEAIRRRGDTFYVVSFRRDHLLLPATTHNKTTRPKMSIVLPAININENVINGQDYEVMMQIDCQVMDTRILHIKSSSVPPYLRDQQRNQTNTFFGSPPAATEATHVVSTIPESLQ
modifications: glycosylated (PNGase F assay); Monolith His-Tag Labeling Kit RED-tris-NTA dye on the His-tag
With B1 the Kd [4] was 0.021 µM.

B2: Luminal domain of human PERK (PKR-like endoplasmic reticulum kinase), His-tagged (domain or fragment, UniProt Q9NZJ5 30-514, looked up)
chain: AGRARGLPAPTAEAAFGLGAAAAPTSATRVPAAGAVAAAEVTVEDAEALPAAAGEQEPRGPEPDDETELRPRGRSLVIISTLDGRIAALDPENHGKKQWDLDVGSGSLVSSSLSKPEVFGNKMIIPSLDGALFQWDQDRESMETVPFTVESLLESSYKFGDDVVLVGGKSLTTYGLSAYSGKVRYICSALGCRQWDSDEMEQEEDILLLQRTQKTVRAVGPRSGNEKWNFSVGHFELRYIPDMETRAGFIESTFKPNENTEESKIISDVEEQEAAIMDIVIKVSVADWKVMAFSKKGGHLEWEYQFCTPIASAWLLKDGKVIPISLFDDTSYTSNDDVLEDEEDIVEAARGATENSVYLGMYRGQLYLQSSVRISEKFPSSPKALESVTNENAIIPLPTIKWKPLIHSPSRTPVLVGSDEFDKCLSNDKFSHEEYSNGALSILQYPYDNGYYLPYYKRERNKRSTQITVRFLDNPHYNKNIRKKD
modifications: Monolith His-Tag Labeling Kit RED-tris-NTA dye on the His-tag
B2 was tested, and the Kd [4] was 0.0141 µM.

B3: Luminal domain of human IRE1α (inositol-requiring enzyme 1α), His-tagged (domain or fragment, UniProt O75460 19-443, looked up)
chain: IFGSTSTVTLPETLLFVSTLDGSLHAVSKRTGSIKWTLKEDPVLQVPTHVEEPAFLPDPNDGSLYTLGSKNNEGLTKLPFTIPELVQASPCRSSDGILYMGKKQDIWYVIDLLTGEKQQTLSSAFADSLCPSTSLLYLGRTEYTITMYDTKTRELRWNATYFDYAASLPEDDVDYKMSHFVSNGDGLVVTVDSESGDVLWIQNYASPVVAFYVWQREGLRKVMHINVAVETLRYLTFMSGEVGRITKWKYPFPKETEAKSKLTPTLYVGKYSTSLYASPSMVHEGVAVVPRGSTLPLLEGPQTDGVTIGDKGECVITPSTDVKFDPGLKSKNKLNYLRNYWLLIGHHETPLSASTKMLERFPNNLPKHRENVIPADSEKKSFEEVINLVDQTSENAPTTVSRDVEEKPAHAPARPEAPVDSMLKD
modifications: labelled copy: Monolith His-Tag Labeling Kit RED-tris-NTA dye on the His-tag (legends also say Alexa647-labeled through His-tag)
B3 showed a Kd [5] of 0.0073 µM, a Kd [6] of 0.04 µM and a Kd [7] of 0.0027 µM. For the same molecule, the Kd [4] was 0.119 µM.
